Source: US9994813, “Role for the perlman syndrome exonuclease Dis3l2 in the Lin28-let-7 pathway” (Children's Medical Center Corporation)
Residue numbers refer to the chain shown, from its start.

What was measured:
[1] = biological target: T1, Dis3l2 (recombinant 6xHis) (Mus musculus, UniProt Q8CI75 Q8CI75:1-870); assay: cleavage_in_vitro; relative RNA stability difference versus non-uridylated; 0.05 mM MgCl2, 50 mM KCl, pH 7.5, 37 C; settings: tags: 6xHis, pETDuet-1, E. coli; label: 5'-32P; hairpin with 3' oligoU tail
T1 sequence: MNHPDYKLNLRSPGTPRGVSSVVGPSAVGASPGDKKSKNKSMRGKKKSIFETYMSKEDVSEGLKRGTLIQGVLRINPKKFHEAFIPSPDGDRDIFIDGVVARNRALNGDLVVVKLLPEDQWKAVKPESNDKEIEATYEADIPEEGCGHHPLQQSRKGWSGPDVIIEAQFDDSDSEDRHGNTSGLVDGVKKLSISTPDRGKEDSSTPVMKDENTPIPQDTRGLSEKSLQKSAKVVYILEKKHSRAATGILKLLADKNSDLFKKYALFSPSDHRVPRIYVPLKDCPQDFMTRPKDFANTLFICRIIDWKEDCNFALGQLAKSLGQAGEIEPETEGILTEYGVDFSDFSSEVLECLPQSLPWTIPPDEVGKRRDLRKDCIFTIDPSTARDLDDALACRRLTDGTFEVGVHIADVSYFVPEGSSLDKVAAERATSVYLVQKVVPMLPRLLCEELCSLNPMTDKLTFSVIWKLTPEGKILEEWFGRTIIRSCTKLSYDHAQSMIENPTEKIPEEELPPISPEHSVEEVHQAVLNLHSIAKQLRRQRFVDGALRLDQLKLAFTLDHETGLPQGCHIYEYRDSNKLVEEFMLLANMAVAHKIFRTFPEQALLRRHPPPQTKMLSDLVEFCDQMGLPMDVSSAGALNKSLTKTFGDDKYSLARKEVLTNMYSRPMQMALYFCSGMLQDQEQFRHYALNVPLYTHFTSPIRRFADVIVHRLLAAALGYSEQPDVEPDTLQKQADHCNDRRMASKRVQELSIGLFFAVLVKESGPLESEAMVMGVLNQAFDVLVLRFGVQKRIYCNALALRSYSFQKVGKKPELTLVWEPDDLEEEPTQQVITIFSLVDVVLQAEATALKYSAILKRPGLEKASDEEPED
Procedure: RNA degradation assays were performed in a total of 20 µl reaction using 6.25 nM 5' end-labeled pre-miR-21, pre-let-7a-1, or pre-let-7a-1+14U RNA (see Table 2) together with Dis3l2 and/or Lin28A. The reactions were set up in the RNA degradation buffer (20 mM HEPES-KOH pH 7.5, 50 mM KCl, 0.05 mM MgCl2, 1 mM DTT) and incubated at 37° C. for 90 minutes. For time-course assays; recombinant 6x-His Dis3l2 was incubated with radiolabeled pre-let-7a-1 or pre-let-7a-1+14U. Bands from three independent experiments were quantified using ImageJ (NIH) and plotted using Prism (Graphpad). Values were fitted to one-phase decay curves with error bars representing +/- s.d. (n=3). For Uridylation-stimulated degradation assays; in vitro uridylation assays were performed as described previously[20,26,27] except with the addition of 10 µM cold competitor uridine triphosphate and immunopurified Dis3l2 where indicated.

Dis3l2 D389N = biological target: T2, Dis3l2 D389N (Mus musculus, UniProt Q8CI75 Q8CI75:1-870, D389N); assay: EMSA; 1 nM RNA, 50 mM Tris pH 7.6, 100 mM NaCl; settings: tags: 6xHis, E. coli; label: 5'-32P; hairpin with 3' oligoU tail
T2 sequence: T1 sequence with D389N
Procedure: (§1) EMSA experiments were performed as described previously. Briefly, 1 nM of the indicated radiolabeled synthetic RNA was incubated in the binding buffer (50 mM Tris pH 7.6, 100 mM NaCl, 10 mM […], 1 unit/µl RNaseOUT) with varying concentrations of catalytically inert recombinant 6x-His Dis3L2 or recombinant 6x-His Lin28 in the absence of competitor RNA. Nucleoprotein complexes were resolved by 4-20% non-denaturing TBE gel electrophoresis (Biorad, #345-0059) and visualized by autoradiography.

Lin28A = biological target: T3, Lin28A (UniProt Q8K3Y3 Q8K3Y3:1-209); assay: EMSA; settings: tags: 6xHis, E. coli; label: 5'-32P; hairpin with 3' oligoU tail
T3 sequence: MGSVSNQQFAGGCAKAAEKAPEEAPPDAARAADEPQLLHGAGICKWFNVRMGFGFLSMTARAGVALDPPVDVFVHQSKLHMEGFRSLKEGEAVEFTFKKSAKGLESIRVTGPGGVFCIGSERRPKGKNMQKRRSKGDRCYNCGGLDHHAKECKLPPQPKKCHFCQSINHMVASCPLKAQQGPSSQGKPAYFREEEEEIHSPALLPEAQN
Procedure: as §1

Dis3l2 D389N (Flag) = biological target: T4, Dis3l2 D389N (Flag) (Mus musculus, UniProt Q8CI75 Q8CI75:1-870, D389N); assay: EMSA; retains binding though catalytically inactive; settings: tags: Flag, immunopurified from V6.5 ESC; label: 5'-32P; hairpin with 3' oligoU tail
T4 sequence: T1 sequence with D389N

B1: mmu-pre-let-7a-1+14U (ssRNA)
RNA: UGAGGUAGUAGGUUGUAUAGUUUUAGGGUCACACCCACCACUGGGAGAUAACUAUACAAUCUACUGUCUUUCCUUUUUUUUUUUUUU
activity [1]: > 10 fold
binding result (Dis3l2 D389N): binds
binding result (Lin28A): binds
binding result (Dis3l2 D389N (Flag)): binds
